Experimental data: US20030186329A1 (Scripps Research, published 2003)
acyl = not defined here

B1: peptide (VII) of Table 1, FRGRK (peptide)
peptide: acyl-FRGRK-NH2
modifications: reading uncertain; also: acylated at the amino terminus (acyl group not given here)
B2: peptide SGRS (peptide)
peptide: acyl-SGRS-NH2
modifications: reading uncertain; also: acylated at the amino terminus (acyl group not given here)
B3: peptide (V) of Table 1, YGRS (peptide)
peptide: acyl-YGRS-NH2
modifications: reading uncertain; also: acylated at the amino terminus (acyl group not given here)
B4: peptide SGKS (peptide)
peptide: acyl-SGKS-NH2
modifications: reading uncertain; also: acylated at the amino terminus (acyl group not given here)
B5: peptide (VI) of Table 1, RGRK (peptide)
peptide: acyl-RGRK-NH2
modifications: reading uncertain; also: acylated at the amino terminus (acyl group not given here)
B6: peptide GSGKS (peptide)
peptide: acyl-GSGKS-NH2
modifications: reading uncertain; also: acylated at the amino terminus (acyl group not given here)
B7: peptide SGRSA (peptide)
peptide: acyl-SGRSA-NH2
modifications: reading uncertain; also: acylated at the amino terminus (acyl group not given here)

Tests used:
[1] = biological target: urokinase-type plasminogen activator (u-PA) (human, UniProt P00749 21-431, limits assumed); experiment: cell-based or functional assay
[2] = biological target: tissue plasminogen activator (t-PA) (human, UniProt P00750 36-562, limits assumed); experiment: cell-based or functional assay
Chain of tissue plasminogen activator (t-PA) (P00750 36-562 limits assumed): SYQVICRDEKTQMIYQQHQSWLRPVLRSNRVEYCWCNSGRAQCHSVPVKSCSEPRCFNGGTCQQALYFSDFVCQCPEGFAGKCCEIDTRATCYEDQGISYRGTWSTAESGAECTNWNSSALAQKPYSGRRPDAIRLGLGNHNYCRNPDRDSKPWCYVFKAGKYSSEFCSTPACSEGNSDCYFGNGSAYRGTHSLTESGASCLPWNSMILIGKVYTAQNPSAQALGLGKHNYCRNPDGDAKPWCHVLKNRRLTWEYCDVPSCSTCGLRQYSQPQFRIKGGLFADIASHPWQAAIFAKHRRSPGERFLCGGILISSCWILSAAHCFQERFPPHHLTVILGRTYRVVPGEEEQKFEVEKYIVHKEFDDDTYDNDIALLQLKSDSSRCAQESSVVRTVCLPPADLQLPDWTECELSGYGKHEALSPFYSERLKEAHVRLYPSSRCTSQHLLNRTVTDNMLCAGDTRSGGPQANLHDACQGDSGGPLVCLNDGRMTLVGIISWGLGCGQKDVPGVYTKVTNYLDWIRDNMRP

Binder | u-PA:t-PA Selectivity [1] | t-PA:u-PA Selectivity [2]
LGGSGRSATRDLE [peptide LGGSGRSATRDLE] | 16 | 0.06
KKSPGRVVGGSVAH [peptide (I), native cleavage sequence from plasminogen] | 3 | 0.33
B1 | – | 78
LGGSGRKASLSLE [peptide LGGSGRKASLSLE] | 31 | 0.032
LGGSGRNAQVRLE [peptide LGGSGRNAQVRLE] | 89 | 0.011
B2 | 3.3 | 0.3
B3 | – | 17
B4 | 23 | 0.04
B5 | – | 57
B6 | 121 | 0.008
LGGSGQRGRKALE [peptide (II) of Table 1, LGGSGQRGRKALE] | – | 47
LGGSGHYGRSGLE [peptide (IV) of Table 1, LGGSGHYGRSGLE] | – | 21
LGGSGERARGALE [peptide (III) of Table 1, LGGSGERARGALE] | – | 13
B7 | 20 | 0.05
LGGRGRSANAILE [peptide LGGRGRSANAILE] | 0.019 | 5.2
LGGYGRSANAILE [peptide LGGYGRSANAILE] | 0.018 | 5.7
LGGSGRSANAILE [peptide LGGSGRSANAILE] | 63 | 0.016
LGQRGRSANAILE [peptide LGQRGRSANAILE] | 0.005 | 19
